Experiments:
[1] = molecular target: T1, Tat, excreted regulatory protein encoded by HIV-1 (HIV-1 IIIB, in infected Jurkat cells) (HIV-1 IIIB, UniProt P04610 1-86); assay: cell-based or functional assay
T1 sequence: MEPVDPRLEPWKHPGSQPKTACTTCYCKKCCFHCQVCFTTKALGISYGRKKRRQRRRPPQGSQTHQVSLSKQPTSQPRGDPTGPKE

[2] = molecular target: T2, target epitope BSA conjugated peptide (HIV-1, conjugated to BSA); assay: ELISA, BSA-conjugated peptide coated on plates, HRP rabbit anti-human IgG, luminescence
T2 construct: also called peptide conjugated to BSA

B1: n-CoDeR ® anti-Tat antibody (antibody, V domains shown)
VH: EVQLLESGGGLVQPGGSLRLSCAASGFTFDDYGMAWVRQAPGKGLEWVSGVSWNGSRTHYADSVKGRFTISRDNSKNTLYLQMNSLRAEDTAVYYCARGVAGHDYWGQGTLVTVSS
VL: QSVLTQPPSASGTPGQRVTISCSGSRSNIGSHYVFWYQQLPGTAPKLLIYDNNKRPSGVPDRFSGSKSGTSASLAISGLRSEDEADYYCAAWDGSLSGHVVFGGGTKLTVLG
notes: Human IgG1 lambda, expressed in CHO cells; also called fully human recombinant IgG1 antibody from the n-CoDeR phage display library
IC50 of inhibition of HIV-1 replication, 1 % initially HIV-1 IIIB infected Jurkat cells, p24 ELISA [1]: 0.05 µg/mL
IC50 of inhibition of HIV-1 replication, 3 % initially HIV-1 IIIB infected Jurkat cells, p24 ELISA [1]: 0.07 µg/mL
EC50 [2]: 0.7 nM

From patent WO2006089678A2 (dated 2006)
